Data as given in the supplement of paper PMC12042874.
± gives the uncertainty stated by the source.

Test: amyloid nucleation score (Sup35N fusion, yeast selection) (log enrichment); library NNK3; higher = more nucleation; inactive = no reads after selection
In short: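 In psi-negative yeast, Sup35N fusions carrying peptides of 20 random codons were induced with 100 μM copper sulfate for 24 hours. The cells then grew 7 days at 30°C on medium lacking adenine and uracil, and plasmid inserts from input and output were Illumina-sequenced, excluding sequences with under 100 input reads. Nucleation score is the DiMSum log enrichment of output over input reads, centred on the mode score of non-aggregating sequences.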

Substance	amyloid nucleation score
SKVIAPWYEEMRWWRSTGAV	inactive
SKVQVIFLSSFFGTIQLWVL	inactive
SKVRTVGRLEVSVRIVKTGL	0.085 ± 0.32
SLATSYVNFILCRLLKFDHT	inactive
SLCDMREWSALVFITHMSMV	inactive
SLCFIWTCMSLVVHTALSVH	inactive
SLCMVTLDKAIRLYYNPMYF	2.18 ± 0.08
SLDCCNGVDRFKVSNILHYP	inactive
SLDLNCQIMLYKSMRCDEE	1.61 ± 0.064
SLFFLSMFVHLMDEMWDWES	inactive
SLFIYGHYEHKHSGSLKFFA	inactive
SLFYHTGRS	0.459 ± 0.15
SLGAMYVRCDKSWR	inactive
SLGFCKVGALLRWFCSQCQG	0.561 ± 0.37
SLGKPSHREFYDFVVAAKTT	inactive
SLGSCTMFSFSIFWISVQSV	1.34 ± 0.084
SLHNM	inactive
SLKSPLRCFLILHSPALCLG	inactive
SLLCKFIVRNPNSSLIRSAS	inactive
SLLSRFIEEGASCRCTRDG	inactive
SLLVLETDGCFPVAPLAGDS	-0.926 ± 1.1
SLLYYFWTNPGAFSKYIYSM	inactive
SLMIG	inactive

Substance	amyloid nucleation score
SLNER	inactive
SLPNA	inactive
SLRNRLVVTSVDYRMHLRRG	inactive
SLSYSSLCSALMWVHVKSYD	inactive
SLSYTRCCQNTILIKRYGLE	inactive
SLVWTDRNYVSTNGSSCVWL	inactive
SLVYMWPDGTFLRWMGAWH	inactive
SLWMQGWYSSGLLPFGSIAE	inactive
SLWRLMSETVGLKKMQ	inactive
SLYTARVFGVNYHFVTSKFF	inactive
SMADPRFQESYEDRETYSIS	inactive
SMCPLYFINHAIAVDAMKFF	inactive
SMCPPLQRG	inactive
SMDNFL	inactive
SMGKCRFRCVNIIFYWRWIH	1.25 ± 0.14
SMGLFDTQFVGELHVASRLF	inactive
SMRKRKRIKLDI	inactive
SMRLEFGLSMCVWVVDPSN	0.706 ± 0.15
SMSPFRKFLTFWNMGPKRTL	-1.06 ± 2.4
SMSPTKLYSSIMVNSWEWLF	inactive
SMSSELCLGNRHYG	inactive
SMTWSRIAFEIMWNSVCRLI	inactive
SNARKGLMNVLRRYWLCDWT	-0.412 ± 0.88

Substance	amyloid nucleation score
SNDIRF	inactive
SNDVCVC	inactive
SNLCGFCRSHVIKVMLLLSA	inactive
SNLVPMQCVIL	inactive
SNPLYGSDMQVHYF	1.16 ± 0.14
SNPVFFVMLAPLWVAQLSNP	inactive
SNQTWMVNET	inactive
SNRYKVCWCCPFLFRGVTRL	1.94 ± 0.093
SNSFTAFVYTYPWDHLVGVL	-0.195 ± 0.47
SNSFVDFRHSDWF	inactive
SPFCYRR	inactive
SPFLKTTVAGLGSPRELSIR	inactive
SPFPLEPFS	inactive
SPGLMRYRRTPLAKSLPWMK	inactive
SPGPFR	inactive
SPKFVRWGRQVVSSVRA	inactive
SPLSRTFTPTYAGDMLLNSS	inactive
SPRTNNPTMHRSGW	inactive
SPSGSIVAVTPLIWR	inactive
SQFDEMLFSKMEPWQVLFTM	inactive
SQFLLYTVQQFRWTACHVAF	inactive
SQGLYVGPVAPSGTVRRVWM	inactive
SQHHPSGSSMWGKWIMLDPR	inactive

Substance	amyloid nucleation score
SQMSPSNDMWLALNV	inactive
SQRYLNLVPKYLSRLVMCGI	inactive
SQVVTVRCPDSSLCEIFSWG	inactive
SRDTVRVLNLLGRKALMRGQ	inactive
SREQIVCQVRSITLAYKNSV	inactive
SRFEGLASDTDMYSRDSTWR	inactive
SRFYETDYSYFSIKSYDAGG	inactive
SRGLYKYLGLRFFMYGRVLR	inactive
SRITYEGQSRGCTLGNGLKR	inactive
SRKWCQFYSCIIYTTNLLGR	1.85 ± 0.069
SRLIIVPCCLL	0.478 ± 0.28
SRLMWSGNLWRILVWCFTSN	inactive
SRMDNSDTIYNILLWTSSYS	inactive
SRNSSIMCFL	inactive
SRQGVNQKRTVCWS	inactive
SRQKINHQCCYKFCVVDYY	1.56 ± 0.091
SRSCNVLSEWRGINVNGWGN	-0.176 ± 1.1
SRTLIIIVYFTTNIIVLEFY	inactive
SRVHEVLNFCTY	inactive
SRWTCLNFVWSTSQHLQWN	inactive
SRWVLSWSIVITIHLDMRSL	inactive
SRYMARTSDPARYVTPVSNT	inactive
SRYTLNAFYMWG	2.02 ± 0.1

Substance	amyloid nucleation score
SSCNLIWCFSSDAILKPLMQ	1.38 ± 0.093
SSCSSDLAKQYGDMTFI	inactive
SSFAGVFNFRDGTQSQILYV	inactive
SSGVTVDGSMCRI	inactive
SSKASSFVFMACGPGTEVIG	inactive
SSKSSRLNMTVFSKTVMTIM	inactive
SSKYISFSTTSYCTGLYRTP	0.896 ± 0.16
SSLLYIDRIVLSRTVIPMLL	inactive
SSLSDSDGSFLDIMGAYYWA	inactive
SSMWF	inactive
SSPKMMCSFFDMSTLPFVYD	inactive
SSQDVTALLSRLN	inactive
SSSESKFLYTDMWHMYWDFC	0.548 ± 0.14
SSSFVYFYSLVRFAPTLREY	inactive
SSSMCYRCDLSMFLGSGRSG	inactive
SSTMLTNIWHHPNHGVVWDR	inactive
SSVKMTDLRH	inactive
SSYCGHCNYEPRSSWFILFF	1.61 ± 0.072
SSYYISNVSMPTFSEFVVTL	inactive
STCMFVGSDSRVRVRYIDIC	inactive
STICDFNLICSAFANSVRLR	inactive
STIYKPVYFRVVTGFLMW	inactive
STPSLGTSF	inactive

Substance	amyloid nucleation score
STSYGLRIVSKNDDYLRTAR	0.511 ± 0.19
STSYYPDVRVATRSSYWHFT	1.14 ± 0.18
STTGWSMYYWSIRADREVTY	inactive
STVEENIY	inactive
STVELWQELFAFNTRGGSNG	inactive
STVQLYSPIQESVVTVFTNK	inactive
STVYSRHIKTDLTNCCKFFY	-0.657 ± 0.98
STYFLLILFEGKCFNCSVGK	1.38 ± 0.077
SVCLSDRSSGS	inactive
SVCSCNAKYARIGMMLFLLG	1.16 ± 0.075
SVCWVFYCFFSLWCRLSESR	inactive
SVDCYCTKKTYMQWSGSVRH	0.66 ± 0.23
SVDEVRCTCVYSCGVWPGGC	inactive
SVDYQGYNGKKYLFTISLRC	inactive
SVFFYKYQALIRNEGEK	inactive
SVFRDSRPLLYDVNMVNGGG	inactive
SVIAMYQFVYYYVSKMVNID	inactive
SVLHLWGLDYFNGEYTMRKG	1.02 ± 0.17
SVLVDY	inactive
SVMMVMEEFFQWGLKVNMRT	-0.078 ± 0.54
SVNIMVMTVMNY	1.81 ± 0.058
SVNSGVMIAEPDLRWCGSAT	inactive
SVPDCELVAYKSSLWCTHLT	inactive

Substance	amyloid nucleation score
SVQLGIKNVITLRSYVYKTW	-0.208 ± 0.6
SVRRYRSYLVLRRRTGHDRN	inactive
SVRYTV	inactive
SVSFFAF	inactive
SVSLCFYFGIDYRILLMPEN	0.088 ± 0.73
SVSVVKSSEILSSMGPCGGT	inactive
SVVAYFLLIRYGDYRYHLQM	inactive
SVVQIHAERYE	inactive
SWDHTVNKLGTPTVGSGSND	inactive
SWGQVGYIEFFIGSSCHVS	-0.378 ± 0.84
SWKVTMKPGNFWV	inactive
SWLFGLCYF	2.06 ± 0.085
SWNRGNLTM	inactive
SWNVFFFSGFRVPYYALTGV	0.254 ± 0.82
SWYYLQFIFMDFMINFCVME	inactive
SYAPKMSIRGMNFKTVMVFL	2.37 ± 0.076
SYCKATRSVRQSNSARVVVR	inactive
SYCWRVSHGEYH	inactive
SYEAF	inactive
